Here are results for one molecule from US11078242 (SOTIRA COVID, dated 2021).

Assay [1] addresses T1, angiotensin converting enzyme-2 (ACE-2), full-length ACE-2 protein (UniProt Q9BYF1 18-740).
T1 construct: also called ACE-2 enzyme; ACE-2 receptor
As to the kind of experiment: FITC-labeled ACIS (FIG. 4B).

The target in assay [2] is T1, angiotensin converting enzyme-2 …. The assay is described as follows: fluorescence polarization; FITC-tagged ACIS peptide titrated with hACE-2. A general note: Polarisation of emitted light reports the rotation of a fluorescent probe.

T1 sequence (Q9BYF1 18-740 limits assumed): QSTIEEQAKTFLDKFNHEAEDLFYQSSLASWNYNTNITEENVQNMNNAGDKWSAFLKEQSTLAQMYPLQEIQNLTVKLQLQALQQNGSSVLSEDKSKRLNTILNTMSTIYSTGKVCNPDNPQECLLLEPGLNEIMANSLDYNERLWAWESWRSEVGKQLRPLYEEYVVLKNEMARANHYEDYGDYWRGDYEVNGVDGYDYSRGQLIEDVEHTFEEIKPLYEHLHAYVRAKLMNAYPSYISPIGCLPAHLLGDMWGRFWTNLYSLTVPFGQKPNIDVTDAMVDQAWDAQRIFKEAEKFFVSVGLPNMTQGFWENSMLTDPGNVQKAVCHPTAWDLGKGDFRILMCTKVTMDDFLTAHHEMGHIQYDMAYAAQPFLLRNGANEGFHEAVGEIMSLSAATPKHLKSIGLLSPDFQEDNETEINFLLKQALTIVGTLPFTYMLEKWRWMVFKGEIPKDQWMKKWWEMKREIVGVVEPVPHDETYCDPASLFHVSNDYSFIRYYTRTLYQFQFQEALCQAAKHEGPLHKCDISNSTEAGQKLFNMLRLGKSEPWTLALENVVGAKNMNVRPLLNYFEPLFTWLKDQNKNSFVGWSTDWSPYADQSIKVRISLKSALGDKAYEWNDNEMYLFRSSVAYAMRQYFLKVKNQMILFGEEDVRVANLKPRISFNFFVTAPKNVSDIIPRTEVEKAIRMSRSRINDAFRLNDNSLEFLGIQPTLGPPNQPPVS

B1: KEPTIDE2 (FITC tagged KEPTIDE; ACIS peptide tagged with FITC probe at C-terminal end) (peptide)
peptide: FQPTNGVGYQPYGK
modifications: FITC at the C-terminal end (on the C-terminal lysine tag according to paragraph 109)
notes: also called FITC-tagged ACIS peptide; FITC-labeled ACIS
Take B1: the IC50 in assay [1] was found to be 24.5 nM. Further, in assay [2], the “EC50 (read off the curve)” value is roughly 6 nM and binding was put at a Kd of 6.38 nM.

The IC50 is the midpoint of a concentration-inhibition curve. A high value points to weaker potency in that assay. In general, EC50 (read off the curve) refers to the concentration that produces a half-maximal response. As a reminder, the Kd is the constant that tells how readily two partners part at equilibrium. Lower therefore signals a tighter complex.
